Source: patent publication US20260258115A1 (MAPP BIOPHARMACEUTICAL, published 2026)

Columns and labels:
RSV F on RSV-A2 virus [1] = biological target: RSV F on RSV-A2 virus (Respiratory syncytial virus, RSV-A2, UniProt P03420 26-574); assay: cell-based or functional assay
RSV F on RSV-A2 virus [2] = biological target: RSV F on RSV-A2 virus (Respiratory syncytial virus (RSV-A2)); assay: cell-based or functional assay

B1: ADI-41810 (antibody, V domains shown)
VH: QVQLVQSGGGVVQPGRSLRLSCAASGFNFHNYAMHWVRQAPGKGLEWVAVISYDGGNKHYADSVKGRFTISRDNSKNTLYLQMNSLRPDDTAVYYCARGHSDWRGDYFDFWGQGTLVTVSS
VL: DIQLTQSPATLSVSPGERAILSCRASQNVGTNLAWYQQKPGQAPRLLIYDASTRATGIPARFSGSGAGTDFTLTISGLQSEDFAVYYCQQYINWPPYTFGQGTKLEIK
Neutralization IC50 (RSV subtype A) (RSV F on RSV-A2 virus [1]): > 25 µg/mL

B2: ADI-41788 (antibody, V domains shown)
VH: QVQLVQSGAEVKKPGASVKVSCQASGYTLTTYDINWVRQAPGQGLEWMGWMNANSGNTGYAQKFQGRVTMTRNISISTAYMELSSLGPEDTAVYYCARGFYKWNDWSFDYWGQGTLVTVSS
VL: QSVLTQPPSVSVAPGQTARITCGGNNIGSKSVHWYQQKPGQAPVLVVYDDSDRPSGIPERFSGSNSGNTAPLTISRVEAGDEADYYCQVWDGDSAHHAVFGGGTQLTVL
Neutralization IC50 (RSV subtype A) (RSV F on RSV-A2 virus [1]): 0.47 µg/mL

B3: ADI-41236 (antibody, V domains shown)
VH: QVQLVQSGGGLVKPGGSLRLSCTASGFTFSDYYMDWIRQAPGKGLEWVSSISSSSTYTKYADSVKGRFTISRDNAKNSLFLQMNSLRAEDTAVYYCVRNLGPYCSSTSCFVFDYWGQGTLVTVSS
VL: QSVLTQPPSVSGAPGQRVSISCTGSSSNIGAGYEVHWYKQVPGTAPRLLMYDNTNRPSGVPDRVSGSKSGTSASLAITGLQAEDEADYYCQSYDNSLNKSVFGGGTKVTVL
Neutralization IC50 (RSV subtype A) (RSV F on RSV-A2 virus [2]): > 25 µg/mL

B4: ADI-41597 (antibody, V domains shown)
VH: QVQLQESGPGLVKPSETLSLTCTVSGASVSSNNYYWSWIRQPPGKGLEWIGYIYYSGSTNYNASLKSRVTISVDTSKNQFSLKLSSVTAADTALYYCAGEHIFGVASPFEAPFDYWGQGTMVTVSS
VL: SSELSQPPSVSVAPGKTARITCGGNNIGIKSVHWYQQKPGQAPVLVIYSDSDRPSGIPERFSGSNSGNTATLTITRVEAGDEADYYCQVWDSSSDHFVFGIGTKVTVL
Neutralization IC50 (RSV subtype A) (RSV F on RSV-A2 virus [1]): 0.173 µg/mL

B5: ADI-41589 (antibody, V domains shown)
VH: EVQLLESGGGLVQPGGSLRLSCAASGFTFNFFALTWVRQAPGKGLEWVSAISGSGESTYYADSVKGRFTISRDNSKNTLYLQMNSLRAEDTAVYYCAKFARSGDYASFFDYWGQGTLVTVSS
VL: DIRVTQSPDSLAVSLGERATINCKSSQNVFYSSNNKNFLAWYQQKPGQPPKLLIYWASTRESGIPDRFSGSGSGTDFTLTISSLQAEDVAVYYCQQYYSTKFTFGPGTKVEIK
Neutralization IC50 (RSV subtype A) (RSV F on RSV-A2 virus [1]): > 25 µg/mL

B6: ADI-41598 (antibody, V domains shown)
VH: EVQLVESGPGLVKPSETLSLTCTVSGGSITPYYWSWIRQPPGKGLEWIGNISYSGSTTYNPSLKSRVTISVDRSKDQFSLRLRSVTAADTAVYYCARVVTLVLGVSLNDAFDIWGQGTMVTVSS
VL: DIQMTQSPSSLSASVGDRVTITCRASQSISRYLNWYQHKPGKAPILLIYAATTLESGVPPRFSGSGSGTDFSLTISSLQPEDFATYYCQQSYSVPLTFGGGTKLEIK
Neutralization IC50 (RSV subtype A) (RSV F on RSV-A2 virus [1]): 0.174 µg/mL

B7: ADI-41563 (antibody, V domains shown)
VH: QVQLVESGPGLVKPSETLSLTCTVSDDSITNNFWTWIRQPPGKGLEWIGYIYYSGSTNYNPSLKSRITMSVDLSKNQFSLKLSSVTAADTAVYYCARLTSGGVDYWGQGTLVTVSS
VL: QSVLTQPPSLSGAPGQRVTISCTGSSSNIGADYHVHWYQQLPGTAPKLLIYQNTNRPSGVPDRFSASKSGTSVSLAITGLQAEDEADYYCQSYDSSLSAWVFGGGTKLTVL
Neutralization IC50 (RSV subtype A) (RSV F on RSV-A2 virus [1]): 0.0323 µg/mL

B8: ADI-41772 (antibody, V domains shown)
VH: EVQLLESGGGLVEPGTSLRLSCEASGFTFSDYYMSWIRQAPGKGPEWVADISSRGVVTYYADSVKGRFTISRDNAKNSLYLQLNSLGAEDTAVYYCARLREVTYIMPTIDYFDYWGQGTLVTVSS
VL: SYELTQPPSVSVSPGQTARITCSGDAFVKKYAYWYHQKSGQAPVVVIYEDTKRPSGIPERFSGSSSGTTATLTISGAQVEDEGDYYCYSRDFSGDHGVFGGGTKLTVL
Neutralization IC50 (RSV subtype A) (RSV F on RSV-A2 virus [1]): 0.04 µg/mL

B9: ADI-41568 (antibody, V domains shown)
VH: QVQLQQWGARLLKPSETLSLTCAVYGGSFSGYYWSWIRQSPGKGLEWIGEINHSGSTNYNPSLKSRVTISRDTSKKQFSLKVSSVTAADTAVYYCARDPPIRCNGDSCKSDQYRYGMDVWGQGTTVTVSS
VL: QPGLTQPPSVSVSPGQTARITCSGDALPKQYAYWYQQKPGQAPVLVIHKDNERPSGIPERFSGSSSGTTVTLTISGVQAEDEADYYCQSADTSGSYRLFGGGTKLTVL
Neutralization IC50 (RSV subtype A) (RSV F on RSV-A2 virus [1]): > 25 µg/mL

B10: ADI-36675 (antibody, V domains shown)
VH: EVQLVESGGGLVQPGGSLRLSCAASGFTFNRFAMSWVRQAPGKGLEWVSGISGSGGSTLYADSVKGRFTISRDNSKNTLYLQINSLRVEDTAVYYCASRSSYDDVWNGYVDWDWGFDFYYYGMDVWGQGTTVTVSS
VL: QAVVTQEPSMSAAPGQKVTISCSGGDSNIRNNYVFWYQQLPGTAPKLLIYDNTKRPSGIPGRFSGSKSGASATLDITGLQTGDEADYYCGTWDSSLSALVFGGGTQLTVL
Neutralization IC50 (RSV subtype A) (RSV F on RSV-A2 virus [1]): 0.006 µg/mL

B11: ADI-41599 (antibody, V domains shown)
VH: EVQLLESGGGLVQPGGSLRLSCAASGFIFSNYEMNWVRQAPGKGLEWISHITPTGNSIYYADSVKGRFTISRDNAKNAQYLQMHSLRPDDTAIYYCARGEDPIAATGGFDSWGQGTLVTVSS
VL: EIVLTQSPSSLSASVGDRVTIPRRSSQNVDKFLHWYQQRPGKAPKLLIYAAFSLQSGVPSRFSGSGSGTDFTLTISSLQPEDFATYYCQQSYSTPFTFGQGTKVEIK
Neutralization IC50 (RSV subtype A) (RSV F on RSV-A2 virus [1]): 0.637 µg/mL

B12: ADI-41812 (antibody, V domains shown)
VH: EVQLVESGGGLVKPGGSLRLSCAASGFTFSSYSMNWVRQAPGKGLEWVSSISAGSSYTDYAESVKGRFTISRDNAKNSLYLKMNSLRAEDTAVYYCARDPGYCSSNSCTVAMDVWGQGTTVTVSS
VL: SYELTQPPSVSGAPGQRVTISCTGSSSNIGAGYDVHWYQQLPGTAPKLLIYGNNNRPSGVPDRFSGSKSGTSASLAITGLQAEDEADYYCQSYDRTLVIFGGGTKLTVL
Neutralization IC50 (RSV subtype A) (RSV F on RSV-A2 virus [1]): 0.17 µg/mL

B13: ADI-41571 (antibody, V domains shown)
VH: EVQLLESGGGLVKPGGSLRLSCEASGFPFNSYHMNWIRQSPGKGLEWVSYITGGSSFSNYADSVKGRFTISRDNAKNSLYLQMNSLRAEDTAVYYCARTTLDCTSTSCHYRFDYWGQGTLVTVSS
VL: QSVLTQPPSVSGAPGQRITISCNGSNSNIGAGYDVHWYQQLPGKAPKLLIYSNNNRPSGVPDRFSGSKSGTSASLAITGLQGEDEADYYCQSHDTRLSGNVVFGGGTKLTVL
Neutralization IC50 (RSV subtype A) (RSV F on RSV-A2 virus [1]): 0.0315 µg/mL

B14: ADI-41595 (antibody, V domains shown)
VH: QVQLVQSGGGVVQPGGSLRLSCAASGFTFSDYGMHWVRQAPGKGLEWVAVISDGGSNQYSADSVRGRFTISRDNSKNTLYLQMNSLRPEDTAVYYCAKARIAARAIFDYWGQGTLVTVSS
VL: DIQLTQSPSSLSASVGERITITCQASRDVRIYLNWYQHKPGKAPKLLIYDASNLETGVPSRYSGSGSGTDFTFTISSLQPEDIATYFCQQYDLLPPTFGVGTKVEIK
Neutralization IC50 (RSV subtype A) (RSV F on RSV-A2 virus [1]): 0.0475 µg/mL

B15: ADI-41235 (antibody, V domains shown)
VH: QVQLQQWGAGLLKPSETLSLTCGVYGESFSGHYWSWIRQPPGKGLEWMGEIHHSGTTNYNPSLKSRVTISVDTSKNQFSLKLNSVTAADTAVYYCARNPAEDILTGYSPPFHYYYMDVWGKGTTVTVSS
VL: QSVLTQPPSVSGAPGQRVTISCTGSSSNIGAGYDVHWYQQIPGTAPKLLIHSNNNRPSGVPDRFSGSKSGTSASLAITGLQAEDEADYYCQSYDSSLSVVFGGGTKLTVL
Neutralization IC50 (RSV subtype A) (RSV F on RSV-A2 virus [2]): > 25 µg/mL

B16: ADI-41594 (antibody, V domains shown)
VH: EVQLVESGGGLVKPGGSLRLSCAASGFSFSSYYMNWVRQAPGKGLEWVSSISPSSSYTNYADSVKGRFTISRDNAKDSLYLQMNSLRAEDTAVYYCARDGLLGITIFGVVQDYWGQGTLVTVSS
VL: QSVVTQPPSVSGAPGQRVTISCTGSSSNIGAGYDVHWYQQLPGTAPKLLIYGNTNRPSGVPDRFSASKSGTSASLAITGLQAEDEADYYCQSYDSSLSVVFGGGTKLTVL
Neutralization IC50 (RSV subtype A) (RSV F on RSV-A2 virus [1]): 0.0406 µg/mL

B17: ADI-41792 (antibody, V domains shown)
VH: QVQLVQSGGGLVKHGGSLRLSCAASGFTFSSYSMNWVRQAPGKGLEWASSISSSSSYIYYADSVKGRFTISRDNAKNSLYLQMNSLRAEDTAVYYCARTEYSSSSPIFDYWGQGTLVTVSS
VL: QSVLTQPPSVSGAPGQRVTISCTGSSSNIGAGYDVHWYQQLPGTAPKLLTYGNSNRPSGVPDRFSGSKSGTSASLAITGLQAEDEADYYCQSYDSSLSGSVFGGGTKVTVL
Neutralization IC50 (RSV subtype A) (RSV F on RSV-A2 virus [1]): > 25 µg/mL

B18: ADI-41585 (antibody, V domains shown)
VH: EVQLLESGGGLVKPGGSLRLSCAASGFTFADYYMSWIRQAPGKGLEWVSYISGGSSFTNYADSVKGRFTISRDNAKNSLYLQMNSLRADDTAVYYCARGISPALGGGEYFQDWGQGTLVTVSS
VL: QPVLTQPPSVSGAPGQRVTISCTGSSSNIGAGYDVHWYQHLPGTAPKLLIYGNSNRPSGVPDRFSGSKSSTSASLAITGLQAEDEADYYCQSYDSSLGGYVFGTGTKVTVL
Neutralization IC50 (RSV subtype A) (RSV F on RSV-A2 virus [1]): 0.0641 µg/mL

B19: ADI-41584 (antibody, V domains shown)
VH: QVQLVESGAEVKKPGASVKVSCKASGYTFTDYYIHWVRQAPGQGLEWVGRINPNSGYINYAQKFQGRLTMTRDTSISTAYLELSSLRSDDTAVYYCTRLPLLEPLNFFDYWGQGTLVTVSS
VL: QSVVTQPPSVSGAPGQRVTISCTGSSSNIGAGYDVHWYQQLPGTAPKVLIYGNNNRPSGVPDRFSGSKSGTSASLAITGLQAEDEADYYCQSFDSSLSSSYVFGTGTKLTVL
Neutralization IC50 (RSV subtype A) (RSV F on RSV-A2 virus [1]): > 25 µg/mL

B20: ADI-41800 (antibody, V domains shown)
VH: QVQLVQSGAEVKKPGASVKVSCKASGYTFTDYYMHWVRQAPGQGLEWLAWINPYTGGTNYAQKFQGRVTLTRDTSVSTTYMEVTRLRSDDTAVYYCARGESFHHWGQGTLVTVSS
VL: QSALTQPASVSGSPGQSITISCTGTSSDIGGYDYVSWYQQHPGKVPKLMIYEVSTRPSGVSIRFSGSKSGNTASLTISGLQAEDEADYYCSSYTRSTITSVVFGGGTKLTVL
Neutralization IC50 (RSV subtype A) (RSV F on RSV-A2 virus [1]): > 25 µg/mL

B21: ADI-41783 (antibody, V domains shown)
VH: QVQLVQSGDEVKKPGASVKVSCKSSGYTFTHFGVSWVRQAPGQGLEWMGWISGYNGNTNYAQKLQGRVTMTTDTSTTTAYMELTSLRSDDTAVYYCARDSPAGTVTLDFWGQGTTVTVSS
VL: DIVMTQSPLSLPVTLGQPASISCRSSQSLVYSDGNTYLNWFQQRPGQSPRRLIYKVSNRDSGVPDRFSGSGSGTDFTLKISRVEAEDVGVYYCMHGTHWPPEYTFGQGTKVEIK
Neutralization IC50 (RSV subtype A) (RSV F on RSV-A2 virus [1]): 0.25 µg/mL
